Test system: MDA-MB-435 cells
Assay: Intracellular translocation of HerDox and Dox (microscopy)
Assay type: cell-based, human
Procedure: Live (unfixed) cells were imaged by brightfield and fluorescence microscopy.
Live (unfixed) cells were imaged by DIC and confocal fluorescence microscopy.
FIG. 15 illustrates HerDox trafficking in breast cancer cells. Cells incubated with HerDox at 37° C. were fixed at the indicated time points and processed for immunofluorescence using an antibody against HerPBK10. Images were captured using confocal microscopy under fluorescence and brightfield. n, nucleus; Bar, ˜8 microns.

B1: HerDox: non-covalent complex of HerPBK10, double-stranded oligonucleotide and intercalated Dox (Unit A+Unit B+Unit C) (conjugate)
chain: SHLVKCAEKEKTFCVNGGECFMVKDLSNPSRYLCKCQPGFTGARCTENVPMKVQNQEKAEELYQKMRRAAMYEEGPPPSYESVVSAAPVAAALGSPFDAPLDPPFVPPRYLRPTGGRNSIRYSELAPLFDTTRVYLVDNKSTDVASLNYQNDHSNFLTTVIQNNDYSPGEASTQTINLDDRSHWGGDLKTILHTNMPNVNEFMFTNKFKARVMVSRLPTKDNQVELKYEWVEFTLPEGNYSETMTIDLMNNAIVEHYLKVGRQNGVLESDIGVKFDTRNFRLGFDPVTGLVMPGVYTNEAFHPDIILLPGCGVDFTHSRLSNLLGIRKRQPFQEGFRITYDDLEGGNIPALLDVDAYQASLKDDTEQGGGGAGGSNSSGSGAEENSNAAAAAMQPVEDMNDHAIRGDTFATRAEEKRAEAEAAAEAAAPAAQPEVEKPQKKPVIKPLTEDSKKRSYNLISNDSTFTQYRSWYLAYNYGDPQTGIRSWTLLCTPDVTCGSEQVYWSLPDMMQDPVTFRSTRQISNFPVVGAELLPVHSKSFYNDQAVYSQLIRQFTSLTHVFNRFPENQILARPPAPTITTVSENVPALTDHGTLPLRNSIGGVQRVTITDARRRTCPYVYKALGIVSPRVLSSRTFKKKKKKKKKK
modifications: left off: small tags and cut ends
0 min of uptake, 0.5 μM
  intracellular location of Dox fluorescence: mostly at the cell periphery
30 and 60 min
  localization of HerPBK10 and Dox (immunofluorescence): increasing levels of Dox accumulate in the nucleus while the majority of HerPBK10 remains in the cytoplasm
15 min of uptake
  colocalization of HerPBK10 and Dox (immunofluorescence): HerPBK10 mostly colocalizes with Dox
60 min
  intracellular location of Dox fluorescence: accumulated in the nucleus
confocal, live cells
  intranuclear pattern of Dox in live cells: preferentially accumulates in nucleolar structures
